To fix the notation:
B1: unnamed (parent)
chain 1: ATCYCRTGRCATRESLSGVCEISGRLYRLCCR
chain 2: MKRARPSEDTFNPVYPYDTETGPPTVPFLTPPFVSPNGFQESPPGVLSLRLSEPLVTSNGMLALKMGNGLSLDEAGNLTSQNVTTVSPPLKKTKSNINLEISAPLTVTSEALTVAAAAPLMVAGNTLTMQSQAPLTVHDSKLSIATQGPLTVSEGKLALQTSGPLTTTDSSTLTITASPPLTTATGSLGIDLKEPIYTQNGKLGLKYGAPLHVTDDLNTLTVATGPGVTINNTSLQTKVTGALGFDSQGNMQLNVAGGLRIDSQNRRLILDVSYPFDAQNQLNLRLGQGPLFINSAHNLDINYNKGLYLFTASNNSKKLEVNLSTAKGLMFDATAIAINAGDGLEFGSPNAPNTNPLKTKIGHGLEFDSNKAMVPKLGTGLSFDSTGAITVGNKNNDKLTLWTTPAPSPNCRLNAEKDAKLTLVLTKCGSQILATVSVLAVKGSLAPISGTVQSAHLIIRFDENGVLLNNSFLDPEYWNFRNGDLTEGTAYTNAVGFMPNLSAYPKSHGKTAKSNIVSQVYLNGDKTKPVTLTITLNGTQETGDTTPSAYSMSFSWDWSGHNYINEIFATSSYTFSYIAQE
chain 3: MRRAAMYEEGPPPSYESVVSAAPVAAALGSPFDAPLDPPFVPPRYLRPTGGRNSIRYSELAPLFDTTRVYLVDNKSTDVASLNYQNDHSNFLTTVIQNNDYSPGEASTQTINLDDRSHWGGDLKTILHTNMPNVNEFMFTNKFKARVMVSRLPTKDNQVELKYEWVEFTLPEGNYSETMTIDLMNNAIVEHYLKVGRQNGVLESDIGVKFDTRNFRLGFDPVTGLVMPGVYTNEAFHPDIILLPGCGVDFTHSRLSNLLGIRKRQPFQEGFRITYDDLEGGNIPALLDVDAYQASLKDDTEQGGGGAGGSNSSGSGAEENSNAAAAAMQPVEDMNDHAIRGDTFATRAEEKRAEAEAAAEAAAPAAQPEVEKPQKKPVIKPLTEDSKKRSYNLISNDSTFTQYRSWYLAYNYGDPQTGIRSWTLLCTPDVTCGSEQVYWSLPDMMQDPVTFRSTRQISNFPVVGAELLPVHSKSFYNDQAVYSQLIRQFTSLTHVFNRFPENQILARPPAPTITTVSENVPALTDHGTLPLRNSIGGVQRVTITDARRRTCPYVYKALGIVSPRVLSSRTF

In this test the parent is B1. Description: SPR. To be noted: with partner chain of the complex shown, read off a plot; for screen value / Kd: steady-state binding curves at 80 sec of association time, 3-fold dilution series from 3 µM to 111 nM.
The mark [1] stands for this setting: defensin at 333 nM, immobilized rPenton (2115 RU), peak of sensorgram at end of association (about 180 sec).

With chain 1 ATCYCRTGRCATRESLSGACEISGRLYRLCCR, the response under setting [1] is 260 RU. In addition, the screen value (immobilized rPenton (2115 RU)) was 1200 RU.

As for chain 1 ATCYCRTGRCAARESLSGVCEISGRLYRLCCR, the response under setting [1] was 630 RU. For the setting “immobilized rPenton (2115 RU)”, the Kd was determined as 1500 nM and the screen value was 2200 RU.

Regarding chain 1 ATCYCRTGRCATRESLSGVCEISGRAYRLCCR, the response under setting [1] came out at 200 RU. For the same variant, for the setting “immobilized rPenton (2115 RU)”, the Kd came to 1300 nM and the screen value was determined as 700 RU. Further, the response (steady-state response at 80 sec of association time, point at 3 µM defensin) is 520 RU.

For the variant chain 1 ATCYCRTGRCATRESLSGVCAISGRLYRLCCR, the response under setting [1] turned out to be 480 RU. Moreover, under “immobilized rPenton (2115 RU)”, the Kd turned out to be 1600 nM and the screen value is 1600 RU.

Consider chain 1 ATCYCRTGRCATRESLSGVCEISGRLYALCCR, for which the response under setting [1] was 340 RU. For the same variant, under “immobilized rPenton (2115 RU)”, the Kd turned out to be 1300 nM and the screen value was found to be 1100 RU.

For the variant chain 1 ATCYCRAGRCATRESLSGVCEISGRLYRLCCR, the response under setting [1] worked out at 690 RU. In addition, for the setting “immobilized rPenton (2115 RU)”, the Kd is 1300 nM and the screen value worked out at 2100 RU.

On to chain 1 ATCYCRTGRCATRESLSGVCEASGRLYRLCCR, for which the response under setting [1] turned out to be 490 RU. Under “immobilized rPenton (2115 RU)”, the Kd stood at 1500 nM and the screen value stood at 1600 RU.

As usually defined, the Kd is the concentration at which binding is half-saturated.

(Values after paper PMC4154873, “Delineation of Interfaces on Human Alpha-Defensins Critical for Human Adenovirus and Human Papillomavirus Inhibition” (PLoS Pathogens, 2014).)
